Laboratory results from US20260216242A1, “ALPP-SPECIFIC VARIANT ANTIGEN BINDING MOLECULES” (ALMAC DISCOVERY LIMITED, priority 2022, published 2026).
Changes are numbered by the printed parent chain.

T1: ALPI His homodimer (Homo sapiens, UniProt P09923)
T1 sequence (P09923 with tags, fused parts or gaps): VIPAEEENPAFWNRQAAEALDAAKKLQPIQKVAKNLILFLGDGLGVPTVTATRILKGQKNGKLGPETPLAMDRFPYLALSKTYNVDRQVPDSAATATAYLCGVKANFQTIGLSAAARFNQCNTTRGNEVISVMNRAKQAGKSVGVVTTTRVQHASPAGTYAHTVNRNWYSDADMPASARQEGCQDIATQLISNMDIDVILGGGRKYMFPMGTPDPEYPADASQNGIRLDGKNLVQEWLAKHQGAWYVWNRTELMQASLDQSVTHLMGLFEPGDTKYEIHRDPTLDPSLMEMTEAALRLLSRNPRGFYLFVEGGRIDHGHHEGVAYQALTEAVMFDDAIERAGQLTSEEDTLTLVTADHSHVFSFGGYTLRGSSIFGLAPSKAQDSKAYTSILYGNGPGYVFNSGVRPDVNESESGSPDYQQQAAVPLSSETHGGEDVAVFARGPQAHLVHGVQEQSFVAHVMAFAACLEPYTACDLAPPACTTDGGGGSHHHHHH

B1: E10: ALPP/ALPPL2 targeting VHH domain, SEQ ID NO: 31 (protein)
VHH: QVQLVESGGGLVQAGGSLRLSCAVSGRALSDYNIGWFRQAPGKEREFVARKTWDGSSTRYDDSVKGRFTVSIEDAKNTAYLQMSSLKTEDTAVYYCAAGRYSRARGWEYDYWGQGTQVTVSS
B2: F05: ALPP/ALPPL2 targeting VHH domain, SEQ ID NO: 34 (protein)
VHH: B1 VHH with V24A, L29F, S30G, K51R, E73D, D74N, S84N, A104V
B3: B01: ALPP/ALPPL2 targeting VHH domain, SEQ ID NO: 20 (protein)
VHH: QVQLVESGGGLVQAGGSLRLSCEVTRSPMPIDTMAWYRQAPGRQRELVAIISRSGSTNYADSVKGRFTISRNDTKSTMYKSTMYLKMNTLELEDTGVYYCNAVGLWNGAEYWGQGTQVTVSS
B4: D10: ALPP targeting VHH domain, SEQ ID NO: 28 (protein)
VHH: QVQLVESGGGLVQPGGSLRLSCAASGSIFSVNTMGWYRQAPGKQRDLVAVATSGGTIHYADSVKGRFTISRDNAKNTVYLQMNSLKPEDTAVYYCNLVVPYGMIAGDHDYWGQGTKVTVSS
B5: D04: ALPP/ALPPL2 targeting VHH domain, SEQ ID NO: 26 (protein)
VHH: QVQLVESGGGLVQPGGSLRLSCAASESTFSINVMGWYRQAPGKQRELVATITSGDITNYADSVKGRFTISRDNAENTVYLRTNSLKPEDTAVYYCNARGEYHSGNEYDYWGQGTQVTVSS
B6: C07: ALPP/ALPPL2 targeting VHH domain, SEQ ID NO: 25 (protein)
VHH: QVQLVESGGGLVQAGESLRLACAASGTIFSGNAVGWYRQAPEKQREWVSSITDYGDTDYAEAVKGRFTISRDNAKNTVYLQMNSLKPEDTAVYYCYVYQRGESEEYWGQGTQVTVSS
B7: A05: ALPP/ALPPL2 targeting VHH domain, SEQ ID NO: 16; tested C-terminally His-tagged (protein)
VHH: QVQLVESGGGLVQAGASLTLSCAASGFTFNTRSIVWFRQAPGKEREAVSCISKVAGSTYYGDSVQGRFSSSTDNAKNTVSLQMNSLKPEDTAVYTCAASFAPNCYGWSVAANMEYWGEGTMVTVSS
modifications: C-terminal His tag
notes: tested C-terminally His-tagged
B8: F08: ALPP/ALPPL2 targeting VHH domain, SEQ ID NO: 35 (protein)
VHH: QVQLVESGGGSVQAGGSLRLSCAASGPSLSNYAMGWFRQAPGKEREFVAGISWGGGRTSYTDSVKGRFTISRDNAKNTVYLQMNNLKPEDTGVYYCAGRYGRGRNVEYEYDYWGQGTQVTVSS
B9: A06: ALPP/ALPPL2 targeting VHH domain, SEQ ID NO: 17; tested C-terminally His-tagged (protein)
VHH: QVHLVESGGGLVQAGGSLRLSCAASGRTFLSMGWFRQAPGKEREFVAAISWTGGSTGYADSVKGRFTISRESDKETMYLQMNSLKPEDTAVYYCAARGDVYYGGDDATRYKYWGQGTQVTVSS
modifications: C-terminal His tag
notes: as for B7
B10: E06: ALPP/ALPPL2 targeting VHH domain, SEQ ID NO: 30 (protein)
VHH: QVHLVESGGGLVQAGGSLRLSCAASRRSFSEYAMGWFRQAPGKEREFVAAIGWSGVIEYADSVKGRFTISRDNAKDTVYLQMNSLKPEDTAVYYCAAGLGIRVVSQTPAYWGQGTQVTVSS

target: T2, ALPP (Homo sapiens, UniProt P05187); assay: Epitope binning by BLI competition assay; format: binding; settings: BLI competition on immobilised ALPP
T2 sequence (P05187 with tags, fused parts or gaps): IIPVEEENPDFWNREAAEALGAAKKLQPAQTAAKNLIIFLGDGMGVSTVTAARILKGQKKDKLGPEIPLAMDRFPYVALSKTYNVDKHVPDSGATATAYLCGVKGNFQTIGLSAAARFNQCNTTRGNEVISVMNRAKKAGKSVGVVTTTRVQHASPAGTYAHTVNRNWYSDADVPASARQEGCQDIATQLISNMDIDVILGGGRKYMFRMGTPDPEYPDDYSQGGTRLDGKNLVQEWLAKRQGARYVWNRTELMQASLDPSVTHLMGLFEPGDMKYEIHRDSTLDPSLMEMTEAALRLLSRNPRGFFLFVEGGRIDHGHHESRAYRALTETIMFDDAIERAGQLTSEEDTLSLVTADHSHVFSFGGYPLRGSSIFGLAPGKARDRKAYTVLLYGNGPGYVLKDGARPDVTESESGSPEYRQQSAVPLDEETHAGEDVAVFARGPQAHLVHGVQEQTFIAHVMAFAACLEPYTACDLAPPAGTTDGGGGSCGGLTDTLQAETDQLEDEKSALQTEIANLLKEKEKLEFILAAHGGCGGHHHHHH
Protocol: To determine epitope cross reactivity BLI competition assays were conducted. AR2G sensors were used and ALPP immobilised as above. ALPP sensors were then dipped into a well containing a saturating concentration of the initial binder for ten minutes to get an association curve. The sensor was then dipped into a well containing the same concentration of initial binder plus 20 nM of a secondary binding.
An increase in the association curve was indicative that the second VHH bound to a distinct epitope from the initial binder. Monomers with identical CDR3s were grouped as likely to be in the same epitope bin and only one from each group used in the epitope binning experiment.

epitope bin	Molecule
one	B1
one	B2
three	B3
five	B4
four	B5
four	B6
one	B7
one	B8
two	B9
one	B10

tested on: not listed separately; assay: Thermal stability (Protein Thermal Shift assay); format: physicochemical; settings: VHH domains, first derivative analysis
Protocol: Thermal stability assays used Applied Biosystems StepOne Real Time PCR system with the Protein Thermal Shift™ dye kit (Thermo Fisher). The assay mix was set up so that the protein was at a final concentration of 20 µM in 20 μL. 5 μL of Thermal Shift™ buffer was added alongside 2.5 μL 8× Thermal Shift™ Dye. Assays were run using the StepOne software and data analysed using Protein Thermal Shift™ software. All data are from first derivative analysis.

Molecule	Tm
B1	71.8 °C
B2	70.6 °C
B3	82.7 °C
B4	69.9 °C
B5	59.8 °C
B6	70.7 °C
B7	69.5 °C
B8	77.6 °C
B9	73.2 °C
B10	81.1 °C

target: T2, ALPP; assay: BLI binding kinetics, human ALPP immobilised on AR2G sensors (KD / KD apparent); settings: VHH domains
Protocol: (§1) Binding kinetics were determined using the Biolayer Interferometry (BLI) Octet K2 system (Sartorius). Human ALPP, ALPPL2, ALPL (each fused with a cysteine stabilised leucine zipper) and ALPI, (SEQ ID NO: 265, SEQ ID NO: 266 and SEQ ID NO: 267 and SEQ ID NO: 264 respectively) were immobilised in sodium acetate pH5 buffer to AR2G sensors using amine coupling. All assays were conducted in PBS with a plate temperature of 25° C. Ka (M^−1s^−1), Kd (s^−1) and KD (nM) values were determined using Octet Data Analysis High Throughput software (ForteBio) for Biolayer Interferometry.
(§2) Binding kinetics were determined using the Biolayer Interferometry (BLI) Octet K2 or R4 system (Sartorius). Human ALPP, ALPPL2 and ALPL all fused with a disulphide stabilised leucine zipper (SEQ ID NO: 265, SEQ ID NO: 266, and SEQ ID NO: 267) and ALPI His (SEQ ID NO: 264) were used in BLI experiments. For KD apparent measurements, the ALPP proteins were immobilised in sodium acetate pH5 buffer to AR2G sensors using amine coupling. To measure 1:1 interactions, AHC biosensors were used to immobilise Fc-fused proteins. All assays were conducted in HBS-EP with a plate temperature of 25° C. Ka (M^−1s^−1), Kd (s^−1) and KD (nM) values were determined using Octet Data Analysis High Throughput software (Sartorius) for Biolayer Interferometry.
as §2, with “NO:264)” for “NO: 264)”

hALPP Ka	hALPP Kd	Molecule
54200 M⁻¹ s⁻¹	<1e-07 s⁻¹	B1
13900 M⁻¹ s⁻¹	<1e-07 s⁻¹	B2
162000 M⁻¹ s⁻¹	0.000191 s⁻¹	B3
67300 M⁻¹ s⁻¹	0.000013 s⁻¹	B4
85100 M⁻¹ s⁻¹	<1e-07 s⁻¹	B5
129000 M⁻¹ s⁻¹	0.000028 s⁻¹	B6
260000 M⁻¹ s⁻¹	<1e-07 s⁻¹	B7
252000 M⁻¹ s⁻¹	<1e-07 s⁻¹	B8
117000 M⁻¹ s⁻¹	0.000154 s⁻¹	B9
106000 M⁻¹ s⁻¹	<1e-07 s⁻¹	B10

target: Human ALPPL2 (Homo sapiens, UniProt P10696); assay: BLI binding kinetics, human ALPPL2 immobilised on AR2G sensors (KD / KD apparent); settings: VHH domains
Sequence (P10696 with tags, fused parts or gaps): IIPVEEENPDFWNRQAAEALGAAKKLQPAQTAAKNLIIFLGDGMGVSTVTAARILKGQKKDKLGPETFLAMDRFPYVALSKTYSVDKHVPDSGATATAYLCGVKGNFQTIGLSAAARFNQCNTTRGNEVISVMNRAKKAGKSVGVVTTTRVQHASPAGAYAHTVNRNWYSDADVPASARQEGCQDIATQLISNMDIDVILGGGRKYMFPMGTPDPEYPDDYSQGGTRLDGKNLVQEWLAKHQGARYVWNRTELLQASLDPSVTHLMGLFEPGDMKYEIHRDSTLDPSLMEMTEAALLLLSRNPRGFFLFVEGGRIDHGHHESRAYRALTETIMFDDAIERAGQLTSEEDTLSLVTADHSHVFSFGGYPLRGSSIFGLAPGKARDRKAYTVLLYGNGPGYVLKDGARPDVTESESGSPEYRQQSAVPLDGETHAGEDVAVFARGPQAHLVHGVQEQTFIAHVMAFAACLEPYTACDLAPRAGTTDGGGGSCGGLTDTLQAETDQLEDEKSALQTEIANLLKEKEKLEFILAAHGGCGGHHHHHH
Protocol: as §1, §2
as §2, with “NO:264)” for “NO: 264)”

hALPPL2 Ka	hALPPL2 Kd	Molecule
1640000 M⁻¹ s⁻¹	0.000141 s⁻¹	B1
3740000 M⁻¹ s⁻¹	0.000356 s⁻¹	B2
482000 M⁻¹ s⁻¹	0.00014 s⁻¹	B3
2300000 M⁻¹ s⁻¹	0.0028 s⁻¹	B4
754000 M⁻¹ s⁻¹	0.00022 s⁻¹	B5
471000 M⁻¹ s⁻¹	0.000288 s⁻¹	B6
684000 M⁻¹ s⁻¹	<1e-07 s⁻¹	B8
133000 M⁻¹ s⁻¹	0.000672 s⁻¹	B9
1050000 M⁻¹ s⁻¹	0.0000875 s⁻¹	B10

target: T1, ALPI His homodimer; assay: ELISA binding to ALPI; settings: 500 ng purified VHH
Protocol: ELISA was used to test the binding and specificity of the VHHs. ALPP CysHis (SEQ ID NO: 263), ALPI His homodimer (SEQ ID NO: 264) or BSA (Thermo Fisher) were coated onto plates and 500 ng of each purified VHH added. Anti-Llama—HRP antibody was used for detection.

ELISA hALPI	Molecule
No Binding	B1
No Binding	B2
No Binding	B3
No Binding	B4
No Binding	B5
No Binding	B6
No Binding	B7
No Binding	B8
No Binding	B9
No Binding	B10
